Test results reported in article PMC11821529.

Legend:
[1] = target: Myc-tagged Rhinolophus affinis ISG15 S77C (Rhinolophus affinis); assay: cross-linking
[2] = target: Myc-tagged wild-type Mops condylurus ISG15 (Mops condylurus); assay: cross-linking

Substance | stoichiometry N [1] | stoichiometry N [2]
Myc-tagged Rhinolophus affinis ISG15 S77C (natural protein) | 2 | –
Myc-tagged wild-type Mops condylurus ISG15 (natural protein) | – | 2
